Twelve molecules from patent US20180185504A1 (Regeneron, published 2018) can be followed below.

First the molecules themselves.
B1: H1H6960N-DM1 (antibody, human IgG1, V domains shown)
VH: EVQLVESGGGLVKPGGSLRLSCAASGITFSSYSMNWVRQAPGKGLEWVSSISTRSSLIHYADSVKGRFTISRDNAKNSLYLQMNSLRDEDTAVYYCARWDAAAAFDYWGQGTLVIVSS
VL: DIQLTQSPSFLSASVGDRVTITCWASQGISSYLAWYQQKPGKAPKLLIYVASTLQSGVPSRFSGSGSGTEFTLTISSLQPEDFATYFCQQLNSYPLTFGGGTKVEIK
modifications: DM1 conjugated through SMCC linker; attachment residues not stated
B2: H1H6762P-DM1 (antibody, human IgG1, V domains shown)
VH: QVQLVESGGGVVQPGRSLRLSCAASGFTFSHYGMVWVRQPPGKGLEWVALISFDGTTKYYADSVKGRFTISRDNSKNTLYLQMNSLRAEDTAVYFCVGAIAAAAFDLWGRGTLVTVSS
VL: EIVMTQSPATLSVSPGERATLSCRASQSVSSDLAWYQQKPGQAPRLLIYSASARATGIPARFTGSGSGTDFTLTISSLQSEDFAVYYCQQYNNWPMYTFGQGTKLEIK
modifications: DM1 conjugated through SMCC linker; attachment residues not stated
B3: H1H6959N2-DM1 (antibody, human IgG1, V domains shown)
VH: EVQLVESGGGLVQPGRSLRLSCAASGFTFDDYAMHWVRQAPGKGLEWVSGISWHSGIIGYADSVKGRFTISRDNAKNSLYLQMNSLRTEDAALYYCAKIGSYFYFDSWGQGTLVTVSS
VL: EIVLTQSPGTLSLSPGERATLSCRASQSVSSNYLAWYQQKPGQAPRLLIYGASSRATGIPDRFSGSGSGTDFTLTISRLEPEDFAVYYCQQFGSSGYTFGQGTNLEIK
modifications: DM1 conjugated through SMCC linker; attachment residues not stated
B4: H1H6800P-DM1 (antibody, human IgG1, V domains shown)
VH: EVQLVESGGGLVQPGRSLRLSCAASGFTFDGYAMHWVRQGPGKGLEWVSGISWYSDTLGYADSVKGRFTISRDNAKNSLYLQMNSLRTEDTAFYYCAKISSSGWAFDYWGQGTLVTVSS
VL: EIVLTQSPGTLSLSPGERATLSCRASHSVSSAYLAWYQQKPGQTPRLLIYGTSSRATGIPDRFSGSGSGTDFTLTISRLEPEDFAVYYCQQYGSSPLFTFGPGTKVDIK
modifications: DM1 conjugated through SMCC linker; attachment residues not stated
B5: H1H6803P-DM1 (antibody, human IgG1, V domains shown)
VH: EVQLVESGGGVVRPGGSLRLSCAASGFKFDDYGMTWVRHVPGKGLEWVSGINWNGGRTGYTDSVKGRFTISRDNAKNSLYLQMNSLRAEDTALYHCAGARRDAFDIWGQGTMVTVSS
VL: DIQMTQSPSSLSASIGDRVTITCRASQNIIKYLNWYQQNAGKAPKLLIYTASSLQSGVPSRFSGSGSGTDFTLTISSLQPEDFATYYCQQSSSSPYTFGQGTKLEIK
modifications: DM1 conjugated through SMCC linker; attachment residues not stated
B6: H1H6793P-DM1 (antibody, human IgG1, V domains shown)
VH: EVQLVESGGGLVQPGGSLRLSCAASGFSFSIYAMSWFRQAPGKGLEWVSAINGRGDGTHYADSVKGRFTISRDNSKTTLYLQMSSLRAEDTAVYYCAKPVMSTNGFDIWGQGTMVTVSS
VL: DIQMTQSPSTLSASVGDRVTITCRASQSISSWLAWYQLKPGKAPKLLIYKASNLESGVPSRFSGSGSGTEFTLTISSLQPDDFATYYCQQYNIYWTFGQGTKVEIK
modifications: DM1 conjugated through SMCC linker; attachment residues not stated
B7: H1H6975P-mc-VC-PAB-MMD (antibody, human IgG1, V domains shown)
VH: EVHLVESGGGLVQPGGSLRLSCAASGFTFSSYEMNWVRQTPGKGLEWISHISSRSVIIYYADSVKGRFTISRDNAKNSLFLQMNSLRAEDTAVYFCAGITIFGIPEYWGQGTLVTVSS
VL: EIVLTQSPATLSLSPGERATLSCRASQSVSSYFAWYQQKPGQAPRLLIYDASSRATGIPTRFSGSGSGTDFTLTISSLEPEDFAVYYCQQRSSWPITFGQGTRLEIK
modifications: MMD conjugated through mc-VC-PAB linker; attachment residues not stated
B8: H1H6953N-mc-VC-PAB-MMD (antibody, human IgG1, V domains shown)
VH: EVQLLESGGGLVQPGGTLRLSCAASGFTFSAYAMSWVRQAPGKGLEWVSSINVRAGDTYYADSVKGRFTISRDNSKNTLFLLMNSLRAEDTAAYYCAKARYSSNWGFDFWGQGTLVTVSS
VL: DIVMTQSPDSLTVSLGARTTINCQSSQTILHSSNNHNYLAWYQQKPGLPPKLLIYWSSTRESGVPDRFSGSGSGTDFTLTISSLQAEDVAIYYCQQYSNTPYTFGQGTKLEIN
modifications: MMD conjugated through mc-VC-PAB linker; attachment residues not stated
B9: H1H6953N-mc-VC-PAB-MeNHC3-May (antibody, human IgG1, V domains shown)
VH: B8 VH
VL: B8 VL
modifications: MeNHC3-May conjugated through mc-VC-PAB linker; attachment residues not stated
B10: H1H6782P-mc-VC-PAB-MMD (antibody, human IgG1, V domains shown)
VH: EVQLVESGGGLVQPGRSLRLSCAASGFTFDDYAMHWVRQAPGKGLEWVSGIIWNSGHIGYGDSVKGRFTISRDNAKKSLYLQMNSLRAEDTALYYCARDSGRYQSYFDYWGQGTLVTVSS
VL: DIQMTQSPSTLSASVGDRVTITCRASHIISSWLAWYQQKPGKAPKVLIFKASSLESGVPSRFSGSGSGTEFTLTISSLQPDDFATYYCQQYNTYSRTFGQGTKVEIK
modifications: MMD conjugated through mc-VC-PAB linker; attachment residues not stated
B11: H1H6782P-mc-VC-PAB-MeNHC3-May (antibody, human IgG1, V domains shown)
VH: B10 VH
VL: B10 VL
modifications: MeNHC3-May conjugated through mc-VC-PAB linker; attachment residues not stated
B12: H1H6958N2-SPDB-DM4 (antibody, human IgG1, V domains shown)
VH: QVQLVESGGGVVQPGRSLRLSCGASGFTFRNYGMQWVRQGPGKGLEWVTLISFDGNDKYYADSVKGRFTISRDNSKNTLFLQMNSLRTEDTAVYYCARGGDFDYWGQGTLVTVSS
VL: DIQMTQSPSSLSASVGDRVTITCRASQDIRKDLGWYQQKPGKAPKRLIYAASSLHSGVPSRFSGSGSGTEFTLTISSLQPEDFATYYCLQHNSYPMYTFGQGTKLEIK
modifications: DM4 conjugated through SPDB linker; attachment residues not stated

In one experiment the target is T1, human prolactin receptor (PRLR) (human, UniProt P16471 25-622).
T1 sequence: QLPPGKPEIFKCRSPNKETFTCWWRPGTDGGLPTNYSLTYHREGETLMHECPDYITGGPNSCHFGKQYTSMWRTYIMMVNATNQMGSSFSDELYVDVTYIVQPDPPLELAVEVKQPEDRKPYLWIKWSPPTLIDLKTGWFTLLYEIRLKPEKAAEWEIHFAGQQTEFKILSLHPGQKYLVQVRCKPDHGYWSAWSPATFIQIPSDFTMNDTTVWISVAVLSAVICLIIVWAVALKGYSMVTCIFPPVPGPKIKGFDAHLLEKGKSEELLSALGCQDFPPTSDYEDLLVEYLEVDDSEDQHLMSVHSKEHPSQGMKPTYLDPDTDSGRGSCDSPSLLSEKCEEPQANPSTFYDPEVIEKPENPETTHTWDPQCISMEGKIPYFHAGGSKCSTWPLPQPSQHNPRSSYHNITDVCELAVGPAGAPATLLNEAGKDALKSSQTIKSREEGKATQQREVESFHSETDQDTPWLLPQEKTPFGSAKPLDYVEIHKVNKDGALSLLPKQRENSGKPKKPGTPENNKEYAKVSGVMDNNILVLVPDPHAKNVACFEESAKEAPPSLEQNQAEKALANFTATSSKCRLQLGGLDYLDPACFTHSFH
Briefly: cell-based or functional assay.
Take B1: the “% Kill, 293/PRLR cells” value amounted to 95%; the “% Kill, PC3/PRLR cells” value worked out at 82%; the “IC50, cell viability, 293/PRLR cells” value stood at 0.38 nM; the “IC50, cell viability, PC3/PRLR cells” value was found to be 1.13 nM.

Regarding B2, the “% Kill, PC3/PRLR cells” value amounted to 66% and the “IC50, cell viability, PC3/PRLR cells” value was 0.98 nM.

For the molecule B3, the “% Kill, 293/PRLR cells” value is 95%; the “% Kill, PC3/PRLR cells” value amounted to 82%; the “IC50, cell viability, 293/PRLR cells” value was 4.82 nM; the “IC50, cell viability, PC3/PRLR cells” value was 11.6 nM.

Regarding B4, the “% Kill, PC3/PRLR cells” value was 68% and the “IC50, cell viability, PC3/PRLR cells” value is 1.37 nM.

For the molecule B5, the “% Kill, PC3/PRLR cells” value is 70% and the “IC50, cell viability, PC3/PRLR cells” value turned out to be 2.32 nM.

On to B6, for which the “% Kill, PC3/PRLR cells” value was found to be 65% and the “IC50, cell viability, PC3/PRLR cells” value turned out to be 3.65 nM.

The next experiment concerns the target T1, human prolactin receptor (PRLR). Briefly: cell-based or functional assay. This is another data set of the same source.
Take B7: the “% Kill, T47D cells” value worked out at 90% and the “IC50, cell viability, T47D cells” value is 3 nM.

Take B8: the “% Kill, T47D cells” value worked out at 90% and the “IC50, cell viability, T47D cells” value was found to be 1 nM.

In the case of B9, the “% Kill, T47D cells” value worked out at 90% and the “IC50, cell viability, T47D cells” value is 1 nM.

B10: the “% Kill, T47D cells” value turned out to be 90% and the “IC50, cell viability, T47D cells” value is 2 nM.

For the molecule B11, the “% Kill, T47D cells” value was 90% and the “IC50, cell viability, T47D cells” value was 2 nM.

B12: the “% Kill, T47D cells” value is 100% and the “IC50, cell viability, T47D cells” value was 1 nM.

For a further experiment the target is unchanged. Description: cell-based or functional assay. This is another data set of the same source.
As for B7, the “% Kill, MCF7/ATCC cells” value was found to be 50%; the “% Kill, MCF7/PRLR cells” value was determined as 90%; the “IC50, cell viability, MCF7/ATCC cells” value stood at 150 nM; the “IC50, cell viability, MCF7/PRLR cells” value came out at 0.2 nM.

Consider B8, for which the “% Kill, MCF7/ATCC cells” value turned out to be 50%; the “% Kill, MCF7/PRLR cells” value was found to be 90%; the “IC50, cell viability, MCF7/ATCC cells” value was 300 nM; the “IC50, cell viability, MCF7/PRLR cells” value stood at 0.2 nM.

As for B9, the “% Kill, MCF7/ATCC cells” value stood at 60%; the “% Kill, MCF7/PRLR cells” value was 80%; the “IC50, cell viability, MCF7/ATCC cells” value stood at 150 nM; the “IC50, cell viability, MCF7/PRLR cells” value turned out to be 0.2 nM.

On to B10, for which the “% Kill, MCF7/ATCC cells” value is 50%; the “% Kill, MCF7/PRLR cells” value was determined as 90%; the “IC50, cell viability, MCF7/ATCC cells” value was determined as 200 nM; the “IC50, cell viability, MCF7/PRLR cells” value stood at 0.3 nM.

With B11, the “% Kill, MCF7/ATCC cells” value was found to be 50%; the “% Kill, MCF7/PRLR cells” value came to 80%; the “IC50, cell viability, MCF7/ATCC cells” value came to 250 nM; the “IC50, cell viability, MCF7/PRLR cells” value came out at 0.2 nM.

For the molecule B12, the “% Kill, MCF7/ATCC cells” value came out at 80%; the “% Kill, MCF7/PRLR cells” value was 90%; the “IC50, cell viability, MCF7/ATCC cells” value worked out at 25 nM; the “IC50, cell viability, MCF7/PRLR cells” value amounted to 0.8 nM.

For a further experiment the target is unchanged. Briefly: cell-based or functional assay. The source holds these as a separate data set.
As for B1, the “% Kill, MCF7/PRLR cells” value turned out to be 78%; the “% Kill, MCF7 cells” value was 77%; the “% Kill, T47D cells” value is 71%; the “IC50, cell viability, MCF7/PRLR cells” value is 0.29 nM. Further, the “IC50, cell viability, MCF7 cells” value was determined as 100 nM and the “IC50, cell viability, T47D cells” value amounted to 5.1 nM.

As to B2, the “% Kill, MCF7/PRLR cells” value was determined as 83%; the “% Kill, MCF7 cells” value amounted to 64%; the “% Kill, T47D cells” value was 80%; the “IC50, cell viability, MCF7/PRLR cells” value is 0.46 nM. Besides, the “IC50, cell viability, MCF7 cells” value was 110 nM and the “IC50, cell viability, T47D cells” value was 12.6 nM.

For the molecule B3, the “% Kill, MCF7/PRLR cells” value worked out at 80%; the “% Kill, MCF7 cells” value was 82%; the “% Kill, T47D cells” value is 71%; the “IC50, cell viability, MCF7/PRLR cells” value turned out to be 0.47 nM. For the same molecule, the “IC50, cell viability, MCF7 cells” value turned out to be 100 nM and the “IC50, cell viability, T47D cells” value turned out to be 48.9 nM.

Consider B4, for which the “% Kill, MCF7/PRLR cells” value amounted to 85%; the “% Kill, MCF7 cells” value was found to be 65%; the “% Kill, T47D cells” value was determined as 79%; the “IC50, cell viability, MCF7/PRLR cells” value was determined as 0.4 nM. Also, the “IC50, cell viability, MCF7 cells” value amounted to 150 nM and the “IC50, cell viability, T47D cells” value was 3.2 nM.

Take B5: the “% Kill, MCF7/PRLR cells” value was found to be 84%; the “% Kill, MCF7 cells” value is 60%; the “% Kill, T47D cells” value turned out to be 77%; the “IC50, cell viability, MCF7/PRLR cells” value came out at 0.44 nM. The “IC50, cell viability, MCF7 cells” value came out at 150 nM and the “IC50, cell viability, T47D cells” value amounted to 8.61 nM.

With B6, the “% Kill, MCF7/PRLR cells” value came out at 87%; the “% Kill, MCF7 cells” value amounted to 67%; the “% Kill, T47D cells” value is 53%; the “IC50, cell viability, MCF7/PRLR cells” value was 0.54 nM. Also, the “IC50, cell viability, MCF7 cells” value was found to be 125 nM and the “IC50, cell viability, T47D cells” value was found to be 11.1 nM.
